B1: RSPH3 (parent)
chain: LELQRQREARKRALARKQAQEQLR

Variants of: B1
Test: protein stability index of a GFP-peptide fusion (GPS, HEK-293T) (PSI 1-6); higher = more stable
Conditions: c terminus: a fixed tail appended
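Also: lentivirally expressed fusions sorted by FACS into six bins by GFP to DsRed ratio, PSI derived from sequencing read proportions per bin multiplied by bin number.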

Row | Variant | protein stability index
1 | LELQRQREARKRALQRKQAQEQLR [A15Q] | 2.39
2 | LELQRQREARKRALSRKQAQEQLR [A15S] | 4.04
3 | LELQRQREARKRALFRKQAQEQLR [A15F] | 3.56
4 | LELQRQREARKRALERKQAQEQLR [A15E] | 4.31
5 | LELQRQREARKRALGRKQAQEQLR [A15G] | 4.12
6 | LELQRQREARKRALMRKQAQEQLR [A15M] | 2.79
7 | LELQRQREARKRALDRKQAQEQLR [A15D] | 3.94
8 | LELQRQREARKRALNRKQAQEQLR [A15N] | 4.32
9 | LELQRQREARKRALPRKQAQEQLR [A15P] | 4.2
10 | LELQRQREARKRALLRKQAQEQLR [A15L] | 4.05
11 | LELQRQREARKRALRRKQAQEQLR [A15R] | 3.15
12 | LELQRQREARKRALWRKQAQEQLR [A15W] | 3.53
13 | LELQRQREARKRALYRKQAQEQLR [A15Y] | 3.61
14 | LELQRQREARKRALVRKQAQEQLR [A15V] | 3.69
15 | LELQRQREARKRALIRKQAQEQLR [A15I] | 3.15
16 | LELQRQREARKRALCRKQAQEQLR [A15C] | 3.42
17 | LELQRQREARKRALKRKQAQEQLR [A15K] | 3.57
18 | LELQRQREARKRALHRKQAQEQLR [A15H] | 3.96
19 | LELQRQREARKYALARKQAQEQLR [R12Y] | 3.77
20 | LELQRQREARKKALARKQAQEQLR [R12K] | 3.97
21 | LELQRQREARKQALARKQAQEQLR [R12Q] | 4.33
22 | LELQRQREARKGALARKQAQEQLR [R12G] | 4.23
23 | LELQRQREARKFALARKQAQEQLR [R12F] | 2.82
24 | LELQRQREARKWALARKQAQEQLR [R12W] | 3.21

Row | Variant | protein stability index
25 | LELQRQREARKTALARKQAQEQLR [R12T] | 3.79
26 | LELQRQREARKHALARKQAQEQLR [R12H] | 3.71
27 | LELQRQREARKSALARKQAQEQLR [R12S] | 3.81
28 | LELQRQREARKPALARKQAQEQLR [R12P] | 4.25
29 | LELQRQREARKNALARKQAQEQLR [R12N] | 4.45
30 | LELQRQREARKIALARKQAQEQLR [R12I] | 4.21
31 | LELQRQREARKAALARKQAQEQLR [R12A] | 4.23
32 | LELQRQREARKLALARKQAQEQLR [R12L] | 3.22
33 | LELQRQREARKEALARKQAQEQLR [R12E] | 4.71
34 | LELQRQREARKDALARKQAQEQLR [R12D] | 4.15
35 | LELQRQREARKMALARKQAQEQLR [R12M] | 4.18
36 | LELQRQREARKCALARKQAQEQLR [R12C] | 3.9
37 | LELQRQREARKVALARKQAQEQLR [R12V] | 3.81
38 | LELQRQREARKRALAGKQAQEQLR [R16G] | 4.46
39 | LELQRQREARKRALAHKQAQEQLR [R16H] | 4.14
40 | LELQRQREARKRALADKQAQEQLR [R16D] | 3.99
41 | LELQRQREARKRALAEKQAQEQLR [R16E] | 4.26
42 | LELQRQREARKRALAFKQAQEQLR [R16F] | 3.43
43 | LELQRQREARKRALACKQAQEQLR [R16C] | 3.57
44 | LELQRQREARKRALAIKQAQEQLR [R16I] | 3.7
45 | LELQRQREARKRALAAKQAQEQLR [R16A] | 4.19
46 | LELQRQREARKRSLARKQAQEQLR [A13S] | 3.77
47 | LELQRQREARKRMLARKQAQEQLR [A13M] | 3.29
48 | LELQRQREARKRVLARKQAQEQLR [A13V] | 3.78

Row | Variant | protein stability index
49 | LELQRQREARKRYLARKQAQEQLR [A13Y] | 3.49
50 | LELQRQREARKRDLARKQAQEQLR [A13D] | 4.07
51 | LELQRQREARKRGLARKQAQEQLR [A13G] | 3.33
52 | LELQRQREARKRQLARKQAQEQLR [A13Q] | 4.45
53 | LELQRQREARKRRLARKQAQEQLR [A13R] | 4.18
54 | LELQRQREARKRELARKQAQEQLR [A13E] | 4.5
55 | LELQRQREARKRILARKQAQEQLR [A13I] | 3.76
56 | LELQRQREARKRFLARKQAQEQLR [A13F] | 3.39
57 | LELQRQREARKRWLARKQAQEQLR [A13W] | 3.73
58 | LELQRQREARKRLLARKQAQEQLR [A13L] | 3.35
59 | LELQRQREARKRCLARKQAQEQLR [A13C] | 3.24
60 | LELQRQREARKRKLARKQAQEQLR [A13K] | 3.36
61 | LELQRQREARKRPLARKQAQEQLR [A13P] | 4.14
62 | LELQRQREARKRTLARKQAQEQLR [A13T] | 3.85
63 | LELQRQREARKRNLARKQAQEQLR [A13N] | 4.25
64 | LELQRQREARKRHLARKQAQEQLR [A13H] | 4.06
65 | LELQRQREARPRALARKQAQEQLR [K11P] | 3.82
66 | LELQRQREARNRALARKQAQEQLR [K11N] | 3.8
67 | LELQRQREARRRALARKQAQEQLR [K11R] | 3.78
68 | LELQRQREARTRALARKQAQEQLR [K11T] | 3.46
69 | LELQRQREARLRALARKQAQEQLR [K11L] | 3.82
70 | LELQRQREARWRALARKQAQEQLR [K11W] | 2.92
71 | LELQRQREARSRALARKQAQEQLR [K11S] | 4.11
72 | LELQRQREARVRALARKQAQEQLR [K11V] | 2.74

Row | Variant | protein stability index
73 | LELQRQREARYRALARKQAQEQLR [K11Y] | 3.07
74 | LELQRQREARMRALARKQAQEQLR [K11M] | 3.5
75 | LELQRQREARQRALARKQAQEQLR [K11Q] | 4.35
76 | LELQRQREARKRAQARKQAQEQLR [L14Q] | 4.53
77 | LELQRQREARKRAIARKQAQEQLR [L14I] | 3.67
78 | LELQRQREARKRAAARKQAQEQLR [L14A] | 4.46
79 | LELQRQREARKRAHARKQAQEQLR [L14H] | 4.32
80 | LELQRQREARKRAKARKQAQEQLR [L14K] | 3.46
81 | LELQRQREARKRARARKQAQEQLR [L14R] | 4.4
82 | LELQRQREARKRAFARKQAQEQLR [L14F] | 3.74
83 | LELQRQREARKRAPARKQAQEQLR [L14P] | 4.39
84 | LELQRQREARKRAGARKQAQEQLR [L14G] | 4.75
85 | LELQRQREARKRAYARKQAQEQLR [L14Y] | 3.22
86 | LELQRQREARKRASARKQAQEQLR [L14S] | 4.42
87 | LELQRQREARKRATARKQAQEQLR [L14T] | 4.19
88 | LELQRQREARKRAWARKQAQEQLR [L14W] | 2.65
89 | LELQRQREARKRADARKQAQEQLR [L14D] | 4.66
90 | LELQRQREARKRACARKQAQEQLR [L14C] | 3.74
91 | LELQRQREARKRAEARKQAQEQLR [L14E] | 4.35
92 | LELQRQREARKRANARKQAQEQLR [L14N] | 4.04
93 | LELQRQREARKRAVARKQAQEQLR [L14V] | 4.13
94 | LELQRQREARKRAMARKQAQEQLR [L14M] | 3.32

Reference: the supplement of paper PMC10567573
